According to publication PMC2962499:
pKd: −log10 of the molar value.

Columns and labels:
[1] = molecular target: Schizosaccharomyces pombe Rpn10, full-length (residues 1-243) (Schizosaccharomyces pombe) (UniProt O94444); test: SPR
[2] = molecular target: Schizosaccharomyces pombe Rpn10, full-length (residues 1-243) (Schizosaccharomyces pombe) (UniProt O94444); test: AUC
[3] = molecular target: Schizosaccharomyces pombe Rpn10, full-length (residues 1-243) (Schizosaccharomyces pombe) (UniProt O94444); test: ITC

Schizosaccharomyces pombe Rpn10, full-length (residues 1-243) (Schizosaccharomyces pombe), sequence (O94444 whole entry, the tested form may be a part): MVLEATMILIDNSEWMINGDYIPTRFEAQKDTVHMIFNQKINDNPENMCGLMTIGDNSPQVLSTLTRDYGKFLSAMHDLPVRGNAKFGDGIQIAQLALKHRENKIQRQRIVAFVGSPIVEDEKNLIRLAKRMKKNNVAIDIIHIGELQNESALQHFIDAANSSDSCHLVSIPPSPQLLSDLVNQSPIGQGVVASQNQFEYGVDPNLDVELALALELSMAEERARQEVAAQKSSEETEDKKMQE

| pKd [1] | stoichiometry N [2] | pKd [3] | stoichiometry N [3] | KD of each of the two equivalent sites [3] [µM] | Substance |
| --- | --- | --- | --- | --- | --- |
| 4.46 | 1 | 4.86 | 1 | – | Lys48-linked diubiquitin (from UniProt P0CG47 1-76; P0CG47 1-76) |
| – | 1 | – | – | 134 | Lys63-linked diubiquitin (from UniProt P0CG47 1-76; P0CG47 1-76) |
